B1: Synaptonemal complex central element protein 3 (Homo sapiens), A1L190 (parent)
chain: MDDADPEERNYDNMLKMLSDLNKDLEKLLEEMEKISVQATWMAYDMVVMRTNPTLAESMRRLEDAFVNCKEEMEKNWQELLHETKQRL
partner: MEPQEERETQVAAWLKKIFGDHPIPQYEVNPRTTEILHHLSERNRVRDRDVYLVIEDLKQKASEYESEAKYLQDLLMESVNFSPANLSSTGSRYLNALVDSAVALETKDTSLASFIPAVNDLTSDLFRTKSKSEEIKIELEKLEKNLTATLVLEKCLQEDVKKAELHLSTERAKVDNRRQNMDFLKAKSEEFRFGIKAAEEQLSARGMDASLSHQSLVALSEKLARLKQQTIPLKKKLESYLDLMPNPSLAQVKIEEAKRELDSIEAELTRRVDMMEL
B2: Serine/threonine-protein kinase PAK 5 (Homo sapiens), Q9P286 (parent)
chain: MFGKKKKKIEISGPSNFEHRVHTGFDPQEQKFTGLPQQWHSLLADTANRPKPMVDPSCITPIQLAPMKTIVRGNKPCKETSINGLLEDFDNISVTRSNSLRKESPPTPDQGASSHGPGHAEENGFITFSQYSSESDTTADYTTEKYREKSLYGDDLDPYYRGSHAAKQNGHVMKMKHGEAYYSEVKPLKSDFARFSADYHSHLDSLSKPSEYSDLKWEYQRASSSSPLDYSFQFTPSRTAGTSGCSKESLAYSESEWGPSLDDYDRRPKSSYLNQTSPQPTMRQRSRSGSGLQEPMMPFGASAFKTHPQGHSYNSYTYPRLSEPTMCIPKVDYDRAQMVLSPPLSGSDTYPRGPAKLPQSQSKSGYSSSSHQYPSGYHKATLYHHPSLQSSSQYISTASYLSSLSLSSSTYPPPSWGSSSDQQPSRVSHEQFRAALQLVVSPGDPREYLANFIKIGEGSTGIVCIATEKHTGKQVAVKKMDLRKQQRRELLFNEVVIMRDYHHDNVVDMYSSYLVGDELWVVMEFLEGGALTDIVTHTRMNEEQIATVCLSVLRALSYLHNQGVIHRDIKSDSILLTSDGRIKLSDFGFCAQVSKEVPKRKSLVGTPYWMAPEVISRLPYGTEVDIWSLGIMVIEMIDGEPPYFNEPPLQAMRRIRDSLPPRVKDLHKVSSVLRGFLDLMLVREPSQRATAQELLGHPFLKLAGPPSCIVPLMRQYRHH
B3: Homeobox protein VENTX (Homo sapiens), O95231 (parent)
chain: MRLSSSPPRGPQQLSSFGSVDWLSQSSCSGPTHTPRPADFSLGSLPGPGQTSGAREPPQAVSIKEAAGSSNLPAPERTMAGLSKEPNTLRAPRVRTAFTMEQVRTLEGVFQHHQYLSPLERKRLAREMQLSEVQIKTWFQNRRMKHKRQMQDPQLHSPFSGSLHAPPAFYSTSSGLANGLQLLCPWAPLSGPQALMLPPGSFWGLCQVAQEALASAGASCCGQPLASHPPTPGRPSLGPALSTGPRGLCAMPQTGDAF
partner: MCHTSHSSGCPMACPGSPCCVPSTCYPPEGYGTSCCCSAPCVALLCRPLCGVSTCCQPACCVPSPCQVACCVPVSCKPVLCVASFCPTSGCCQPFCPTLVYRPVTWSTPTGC
B4: Leucine-rich repeat-containing protein 45 (Homo sapiens), Q96CN5 (parent)
chain: MEEFRRSYSRLCRESGAEPQEAVLQQLHQLPRGRLDLATQSLTVETCRALGKLLPRETLCTELVLSDCMLSEEGATLLLRGLCANTVLRFLDLKGNNLRAAGAEALGKLLQQNKSIQSLTLEWNSLGTWDDAFATFCGGLAANGALQRLDLRNNQISHKGAEELALALKGNTTLQQLDLRWNNVGLLGGRALMNCLPSNRTLWRLDLAGNNIPGDVLRAVEQAMGHSQDRLTTFQENQARTHVLSKEVQHLREEKSKQFLDLMETIDKQREEMAKSSRASAARVGQLQEALNERHSIINALKAKLQMTEAALALSEQKAQDLGELLATAEQEQLSLSQRQAKELKLEQQEAAERESKLLRDLSAANEKNLLLQNQVDELERKFRCQQEQLFQTRQEMTSMSAELKMRAIQAEERLDMEKRRCRQSLEDSESLRIKEVEHMTRHLEESEKAMQERVQRLEAARLSLEEELSRVKAAALSERGQAEEELIKAKSQARLEEQQRLAHLEDKLRLLAQARDEAQGACLQQKQVVAEAQTRVSQLGLQVEGLRRRLEELQQELSLKDQERVAEVSRVRVELQEQNGRLQAELAAQEALREKAAALERQLKVMASDHREALLDRESENASLREKLRLREAEIARIRDEEAQRASFLQNAVLAYVQASPVRTLSPPK
partner: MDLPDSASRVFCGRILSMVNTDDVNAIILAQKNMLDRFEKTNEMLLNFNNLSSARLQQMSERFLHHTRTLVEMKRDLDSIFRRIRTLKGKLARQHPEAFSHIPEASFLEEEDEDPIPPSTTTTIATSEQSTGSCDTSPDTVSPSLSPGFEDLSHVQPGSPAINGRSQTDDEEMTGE

Variants of: B1
Conditions: with haus1_human HAUS1, Q96CS2

| Variant | effect of a mutation on the interaction |
| --- | --- |
| MDDADPEERNYDNMLKMLSDLNKDLEKLLEEMEKISVQATWMAYDMVVMRTNPTLAESMRRLEDGFVNCKEEMEKNWQELLHETKQRL [A65G] | with no effect |
| MDDADPEERNYDNMLKMLSDLNKDLEKLLEEMEKISVQATWMAYDMVVMCTNPTLAESMRRLEDAFVNCKEEMEKNWQELLHETKQRL [R50C] | with no effect |

Variants of: B2
Conditions: with uxt_human UXT

| Variant | effect of a mutation on the interaction |
| --- | --- |
| V604I | with no effect |

Variants of: B2
Conditions: with fhl3_human FHL3, Q13643
Sequence of fhl3_human FHL3, Q13643 (Q13643 whole entry): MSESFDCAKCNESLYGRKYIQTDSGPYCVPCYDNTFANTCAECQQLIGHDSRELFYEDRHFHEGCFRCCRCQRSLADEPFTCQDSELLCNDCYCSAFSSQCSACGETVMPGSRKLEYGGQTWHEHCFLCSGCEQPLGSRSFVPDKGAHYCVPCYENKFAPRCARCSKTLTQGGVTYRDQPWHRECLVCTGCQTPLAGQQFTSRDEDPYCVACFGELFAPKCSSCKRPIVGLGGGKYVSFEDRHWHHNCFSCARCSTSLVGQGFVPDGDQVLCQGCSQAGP

| Variant | effect of a mutation on the interaction |
| --- | --- |
| V604I | with no effect |

Variants of: B2
Conditions: with pdli7_human PDLIM7, Q9NR12
Sequence of pdli7_human PDLIM7, Q9NR12 (Q9NR12 whole entry): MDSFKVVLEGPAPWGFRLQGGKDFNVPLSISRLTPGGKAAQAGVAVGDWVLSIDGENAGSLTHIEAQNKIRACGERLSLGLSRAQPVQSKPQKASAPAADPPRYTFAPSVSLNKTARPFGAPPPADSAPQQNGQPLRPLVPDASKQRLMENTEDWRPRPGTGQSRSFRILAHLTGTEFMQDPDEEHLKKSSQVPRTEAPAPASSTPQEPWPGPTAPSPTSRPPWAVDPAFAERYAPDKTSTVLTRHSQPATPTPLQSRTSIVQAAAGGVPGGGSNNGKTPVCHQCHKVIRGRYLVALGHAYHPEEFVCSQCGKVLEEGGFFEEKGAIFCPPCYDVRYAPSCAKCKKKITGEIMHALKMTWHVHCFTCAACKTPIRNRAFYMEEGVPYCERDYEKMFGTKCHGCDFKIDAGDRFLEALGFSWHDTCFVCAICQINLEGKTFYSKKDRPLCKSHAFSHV

| Variant | effect of a mutation on the interaction |
| --- | --- |
| V604I | with no effect |

Variants of: B3
Conditions: with kr124_human KRTAP12-4, P60329

| Variant | effect of a mutation on the interaction |
| --- | --- |
| MRLSSSPPRGPQQLSSFGSVDWLSQSSCSGPTHTPRPADFSPGSLPGPGQTSGAREPPQAVSIKEAAGSSNLPAPERTMAGLSKEPNTLRAPRVRTAFTMEQVRTLEGVFQHHQYLSPLERKRLAREMQLSEVQIKTWFQNRRMKHKRQMQDPQLHSPFSGSLHAPPAFYSTSSGLANGLQLLCPWAPLSGPQALMLPPGSFWGLCQVAQEALASAGASCCGQPLASHPPTPGRPSLGPALSTGPRGLCAMPQTGDAF [L42P] | with no effect |
| MRLSSSPPRGPQQLSSFGSVDWLSQSSCSGPTHTPRPADFSLGSLPGPGQTSGAREPPQAVSIKEAAGSSNLPAPERTMAGLSKEPNTLRAPRVRTAFTMEQVRTLEGVFQHHQYLSPLERKRLAREMQLSEVQIKTWFQNRRMKHKRQMQDPQLHSPFSGSLHAPPAFYSTSSGLANGLQLLCPWAPLSGPQALMLPPGSFWGLCQVAQEALASAGASCCGQPLESHPPTPGRPSLGPALSTGPRGLCAMPQTGDAF [A226E] | with no effect |

Variants of: B4
Conditions: with kxdl1_human KXD1, Q9BQD3

| Variant | effect of a mutation on the interaction |
| --- | --- |
| A365V | with no effect |
| R480H | with no effect |

Source: IntAct's records for PubMed 31515488
